Results on 45 variants are retold here after the Human Domainome abundance scans (Beltran et al. 2025).

± gives the uncertainty stated by the source.

First the molecules themselves.
B1: Unconventional myosin-Ie, residues 1051 to 1108; numbered along this chain, Q12965 (parent)
chain: PQVPQCKALYAYDAQDTDELSFNANDIIDIIKEDPSGWWTGRLRGKQGLFPNNYVTKI

Variants of B1 are the subject of this data set. In words: abundance fitness (aPCA) (normalised: wild type 0, dead -1); higher = more abundant; growth selection in yeast, the domain comes from the species named. The following applies: Homo sapiens.
With PQVPQCKALYAVDAQDTDELSFNANDIIDIIKEDPSGWWTGRLRGKQGLFPNNYVTKI [Y12V], the abundance fitness was -0.891 ± 0.047.
As for PQVPQCKALYAFDAQDTDELSFNANDIIDIIKEDPSGWWTGRLRGKQGLFPNNYVTKI [Y12F], the abundance fitness is -0.377 ± 0.13.
As for PQVPQCKALYAEDAQDTDELSFNANDIIDIIKEDPSGWWTGRLRGKQGLFPNNYVTKI [Y12E], the abundance fitness is -0.396 ± 0.12.
With PQVPQCKALYALDAQDTDELSFNANDIIDIIKEDPSGWWTGRLRGKQGLFPNNYVTKI [Y12L], the abundance fitness is -0.892 ± 0.08.
Regarding PQVPQCKALYACDAQDTDELSFNANDIIDIIKEDPSGWWTGRLRGKQGLFPNNYVTKI [Y12C], the abundance fitness was -0.968 ± 0.086.
Take PQVPQCKALYAGDAQDTDELSFNANDIIDIIKEDPSGWWTGRLRGKQGLFPNNYVTKI [Y12G]: the abundance fitness is -0.937 ± 0.072.
Turning to PQVPQCKALYAMDAQDTDELSFNANDIIDIIKEDPSGWWTGRLRGKQGLFPNNYVTKI [Y12M], the abundance fitness was -0.761 ± 0.15.
Consider PQVPQCKALYATDAQDTDELSFNANDIIDIIKEDPSGWWTGRLRGKQGLFPNNYVTKI [Y12T], for which the abundance fitness is -0.836 ± 0.15.
With PQVPQCKALYARDAQDTDELSFNANDIIDIIKEDPSGWWTGRLRGKQGLFPNNYVTKI [Y12R], the abundance fitness is -0.107 ± 0.037.
To PQVPQCKALYAKDAQDTDELSFNANDIIDIIKEDPSGWWTGRLRGKQGLFPNNYVTKI [Y12K] belongs -0.54 ± 0.12; to PQVPQCKALYASDAQDTDELSFNANDIIDIIKEDPSGWWTGRLRGKQGLFPNNYVTKI [Y12S], -0.909 ± 0.087.
With PQVPQCKALYAQDAQDTDELSFNANDIIDIIKEDPSGWWTGRLRGKQGLFPNNYVTKI [Y12Q], the abundance fitness was -0.887 ± 0.081.
On to PQVPQCKALYAHDAQDTDELSFNANDIIDIIKEDPSGWWTGRLRGKQGLFPNNYVTKI [Y12H], for which the abundance fitness was -0.274 ± 0.12.
PQVPQCKALYAADAQDTDELSFNANDIIDIIKEDPSGWWTGRLRGKQGLFPNNYVTKI [Y12A]: the abundance fitness is -0.803 ± 0.096.
Turning to PQVPQCKALYAIDAQDTDELSFNANDIIDIIKEDPSGWWTGRLRGKQGLFPNNYVTKI [Y12I], the abundance fitness was -0.966 ± 0.31.
On to PQVPQCKALYAWDAQDTDELSFNANDIIDIIKEDPSGWWTGRLRGKQGLFPNNYVTKI [Y12W], for which the abundance fitness was -0.15 ± 0.039.
On to PQVPQCKALYAYPAQDTDELSFNANDIIDIIKEDPSGWWTGRLRGKQGLFPNNYVTKI [D13P], for which the abundance fitness is -0.399 ± 0.083.
Take PQVPQCKALYAYEAQDTDELSFNANDIIDIIKEDPSGWWTGRLRGKQGLFPNNYVTKI [D13E]: the abundance fitness is -0.067 ± 0.044.
PQVPQCKALYAYAAQDTDELSFNANDIIDIIKEDPSGWWTGRLRGKQGLFPNNYVTKI [D13A]: the abundance fitness was -0.156 ± 0.051.
In the case of PQVPQCKALYAYIAQDTDELSFNANDIIDIIKEDPSGWWTGRLRGKQGLFPNNYVTKI [D13I], the abundance fitness was -0.082 ± 0.082.
As to PQVPQCKALYAYFAQDTDELSFNANDIIDIIKEDPSGWWTGRLRGKQGLFPNNYVTKI [D13F], the abundance fitness is -0.293 ± 0.057.
Then PQVPQCKALYAYHAQDTDELSFNANDIIDIIKEDPSGWWTGRLRGKQGLFPNNYVTKI [D13H], with -0.16 ± 0.057; and PQVPQCKALYAYNAQDTDELSFNANDIIDIIKEDPSGWWTGRLRGKQGLFPNNYVTKI [D13N], with -0.084 ± 0.094; and PQVPQCKALYAYMAQDTDELSFNANDIIDIIKEDPSGWWTGRLRGKQGLFPNNYVTKI [D13M], with -0.16 ± 0.05.
On to PQVPQCKALYAYCAQDTDELSFNANDIIDIIKEDPSGWWTGRLRGKQGLFPNNYVTKI [D13C], for which the abundance fitness was -0.134 ± 0.06.
Take PQVPQCKALYAYGAQDTDELSFNANDIIDIIKEDPSGWWTGRLRGKQGLFPNNYVTKI [D13G]: the abundance fitness was -0.304 ± 0.056.
Consider PQVPQCKAEYAYDAQDTDELSFNANDIIDIIKEDPSGWWTGRLRGKQGLFPNNYVTKI [L9E], for which the abundance fitness is -0.149 ± 0.059.
As to PQVPQCKAMYAYDAQDTDELSFNANDIIDIIKEDPSGWWTGRLRGKQGLFPNNYVTKI [L9M], the abundance fitness is -0.213 ± 0.075.
To PQVPQCKAFYAYDAQDTDELSFNANDIIDIIKEDPSGWWTGRLRGKQGLFPNNYVTKI [L9F] belongs -0.743 ± 0.36.
On to PQVPQCKAWYAYDAQDTDELSFNANDIIDIIKEDPSGWWTGRLRGKQGLFPNNYVTKI [L9W], for which the abundance fitness is -0.588 ± 0.07.
Then PQVPQCKATYAYDAQDTDELSFNANDIIDIIKEDPSGWWTGRLRGKQGLFPNNYVTKI [L9T], with -0.491 ± 0.05.
With PQVPQCKASYAYDAQDTDELSFNANDIIDIIKEDPSGWWTGRLRGKQGLFPNNYVTKI [L9S], the abundance fitness is -0.3 ± 0.059.
Take PQVPQCKANYAYDAQDTDELSFNANDIIDIIKEDPSGWWTGRLRGKQGLFPNNYVTKI [L9N]: the abundance fitness is -0.232 ± 0.063.
Turning to PQVPQCKAIYAYDAQDTDELSFNANDIIDIIKEDPSGWWTGRLRGKQGLFPNNYVTKI [L9I], the abundance fitness is -0.375 ± 0.13.
Regarding PQVPQCKADYAYDAQDTDELSFNANDIIDIIKEDPSGWWTGRLRGKQGLFPNNYVTKI [L9D], the abundance fitness is -0.451 ± 0.078.
PQVPQCKAYYAYDAQDTDELSFNANDIIDIIKEDPSGWWTGRLRGKQGLFPNNYVTKI [L9Y]: the abundance fitness is -0.701 ± 0.25.
For the variant PQVPQCKAAYAYDAQDTDELSFNANDIIDIIKEDPSGWWTGRLRGKQGLFPNNYVTKI [L9A], the abundance fitness is -0.315 ± 0.052.
PQVPQCKAHYAYDAQDTDELSFNANDIIDIIKEDPSGWWTGRLRGKQGLFPNNYVTKI [L9H]: the abundance fitness is -0.367 ± 0.073.
To PQVPQCKARYAYDAQDTDELSFNANDIIDIIKEDPSGWWTGRLRGKQGLFPNNYVTKI [L9R] belongs -0.291 ± 0.042; to PQVPQCKACYAYDAQDTDELSFNANDIIDIIKEDPSGWWTGRLRGKQGLFPNNYVTKI [L9C], -0.222 ± 0.068.
In the case of PQVPQCKAKYAYDAQDTDELSFNANDIIDIIKEDPSGWWTGRLRGKQGLFPNNYVTKI [L9K], the abundance fitness is -0.187 ± 0.041.
On to PQVPQCKAQYAYDAQDTDELSFNANDIIDIIKEDPSGWWTGRLRGKQGLFPNNYVTKI [L9Q], for which the abundance fitness is -0.268 ± 0.074.
To PQVPQCKAPYAYDAQDTDELSFNANDIIDIIKEDPSGWWTGRLRGKQGLFPNNYVTKI [L9P] belongs -0.822 ± 0.17.
Turning to PQVPQCKAVYAYDAQDTDELSFNANDIIDIIKEDPSGWWTGRLRGKQGLFPNNYVTKI [L9V], the abundance fitness is -0.148 ± 0.039.
Then PQVPQCKAGYAYDAQDTDELSFNANDIIDIIKEDPSGWWTGRLRGKQGLFPNNYVTKI [L9G], with -0.624 ± 0.049.
